Source: the supplement of paper PMC9732359
± gives the uncertainty stated by the source.

Assay: protein stability index of a GFP-peptide fusion (yeast GPS) (PSI 1-4); higher = more stable; sorted into four equal gates, so the index is relative within each strain
Procedure, shortened: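 The protein stability index of a peptide was calculated by multiplying its read frequency in each gate by that gate's number and adding the products. The peptides were tiled 17-residue stretches of yeast proteins, fused downstream of GFP on a Cherry-expressing plasmid and carried in yeast as a pooled library. Mid-log cultures in leucine-free medium were sorted into four equal gates by GFP/Cherry ratio, and each gate's plasmids were PCR-amplified and Illumina-sequenced.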

| Sequence | protein stability index (doa10∆) | protein stability index (pdr5∆) | protein stability index (san1∆) | protein stability index (ubr1∆) |
| --- | --- | --- | --- | --- |
| KDVKAWAGKRLWDQDIA [COR1] | 3.52 ± 0.11 | 3.4 ± 0.11 | 3.27 ± 0.061 | 3.2 ± 0.091 |
| HPTVVDAIDNSDEITQD [IRR1] | 3.22 ± 0.093 | 3.17 ± 0.071 | 3.23 ± 0.068 | 3.15 ± 0.052 |
| MCHIVRKFHELNDHIDD [GRR1] | 2.13 ± 0.053 | 2.31 ± 0.071 | 2.18 ± 0.079 | 1.72 ± 0.04 |
| TVLCTPTGGKAKLSEGT [RPS27B] | 3.25 ± 0.11 | 3.18 ± 0.079 | 3.15 ± 0.045 | 3.15 ± 0.1 |
| IDVDMDASPAPSNESCS [SRB5] | 2.6 ± 0.053 | 2.58 ± 0.05 | 2.66 ± 0.057 | 2.32 ± 0.049 |
| CNEEQTLEAKIGGLLSK [RPO31] | 3.16 ± 0.059 | 3.25 ± 0.059 | 2.99 ± 0.052 | 2.91 ± 0.05 |
| LPNQIPGEYITTIKAIF [YMR129W/POM152] | 2.37 ± 0.055 | 2.51 ± 0.055 | 2.78 ± 0.053 | 3.11 ± 0.041 |
| PIAQPATDVEARAVQDN [RPL13A] | 3.02 ± 0.15 | 3.17 ± 0.11 | 3.1 ± 0.14 | 1.69 ± 0.2 |
| LSGVSNSMDMVDGMAKV [RGR1] | 3.48 ± 0.11 | 3.29 ± 0.11 | 3.44 ± 0.13 | 3.34 ± 0.064 |
| GNIVKEFENKFQNSYKP [YMR129W/POM152] | 3.35 ± 0.081 | 3.14 ± 0.13 | 3.37 ± 0.053 | 3.39 ± 0.098 |
| SGTSVFEVEMILMQQQM [SRP54] | 3.3 ± 0.084 | 3.23 ± 0.071 | 3.18 ± 0.07 | 3.22 ± 0.098 |
| SGEKIDFLLSDWNKRFS [BRR2] | 2.37 ± 0.061 | 2.72 ± 0.055 | 2.88 ± 0.067 | 2.79 ± 0.056 |
| RYDCSFCGKKTVKRGAA [RPL43A] | 2.07 ± 0.066 | 2.13 ± 0.071 | 2.21 ± 0.11 | 2.12 ± 0.053 |
| TNKGPLAQIWLASNMSN [MCD1] | 2.33 ± 0.096 | 1.26 ± 0.054 | 1.26 ± 0.2 | 1.17 ± 0.056 |
| DCQFWETWLGSQCRLHE [PRE2] | 2.22 ± 0.096 | 2.1 ± 0.14 | 2.59 ± 0.11 | 2.6 ± 0.09 |
| QVLSQSADPSLLIDQFS [SWI1] | 3.03 ± 0.1 | 2.96 ± 0.073 | 3.02 ± 0.084 | 2.99 ± 0.057 |
| KLREPVARFLHFNGIRR [ITC1] | 2.04 ± 0.088 | 2.05 ± 0.063 | 2.5 ± 0.083 | 2.09 ± 0.046 |
| FLFAPELGAINLHALSM [SWI1] | 1.84 ± 0.087 | 2.05 ± 0.08 | 2.49 ± 0.12 | 2.17 ± 0.056 |
| DGAGGDNEVQRTMLELI [RPT1] | 3.6 ± 0.16 | 2.95 ± 0.13 | 3.44 ± 0.11 | 3.36 ± 0.066 |
| DWFTYSYFYRRIHVNPS [BRR2] | 1.86 ± 0.047 | 1.28 ± 0.038 | 1.53 ± 0.057 | 1.52 ± 0.029 |
| NSIYCPTQTVAELDLMS [RPN6] | 2.55 ± 0.071 | 1.72 ± 0.071 | 1.39 ± 0.11 | 1.53 ± 0.074 |
| EYQIVYYNPQAGTKITI [RGR1] | 2.15 ± 0.13 | 2.1 ± 0.22 | 2.12 ± 0.13 | 2.45 ± 0.1 |
| DHSWFLLIGCKLDQDDE [CSI1] | 1.54 ± 0.11 | 1.95 ± 0.096 | 3.03 ± 0.12 | 2.34 ± 0.064 |
| LAPSKHQPITSEQKMKE [SIR4] | 2.31 ± 0.077 | 2.37 ± 0.098 | 2.61 ± 0.1 | 2.29 ± 0.24 |
| CSPWSLQISDIPAAGNN [SRB5] | 2.07 ± 0.04 | 2.21 ± 0.04 | 1.96 ± 0.055 | 2.41 ± 0.032 |
| TDLESKSRMINFLDAPG [SNU114] | 2.65 ± 0.078 | 2.95 ± 0.094 | 2.71 ± 0.067 | 2.8 ± 0.047 |
